Experimental findings from doi:10.1101/2022.05.25.493364 are described below.

For this test, the target named is cGAS (cyclic GMP-AMP synthase) of the Serratia marcescens E2-CBASS operon, N-terminal 6×His-tag (Serratia marcescens). The experiment in a line: in vitro covalent bonding assay.

For the substance “E2 of the Serratia marcescens E2-CBASS operon, N-terminal 6×His-tag (enzyme)”, the rate of isopeptide bond (+DTT) formation was 0.5 min⁻¹ and the rate of total bond (thioester+isopeptide, -DTT) formation is 0.63 min⁻¹.
